Reference: US20260374861 (published 2026)
Substitutions are numbered along the chain they refer to.

B1: PR302927 (antibody, V domains shown)
VH: EVQLLESGGGLVQPGGSLRLSCAASGFTFSSYAMSWVRQAPGKGLEWVSTINHIGDSTYYADSVKGRFTISRDNSKNTLYLQMNSLRAEDTAVYYCAKDQWFGVFDYWGQGTLVTVSS
VL: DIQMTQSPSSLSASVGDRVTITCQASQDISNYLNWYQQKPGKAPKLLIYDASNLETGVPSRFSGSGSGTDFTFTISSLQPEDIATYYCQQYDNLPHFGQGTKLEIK
B2: PR303413 (antibody, V domains shown)
VH: QVQLVESGGGVVQPGRSLRLSCAASGFTFSSYGMHWVRQAPGKGLGWVAGIWYAGSNEYYVDSVKGRFIISRDNSKNTLYLQMNSLRAEDTAVYYCARDQGWGTMDAWGQGASVTVSS
VL: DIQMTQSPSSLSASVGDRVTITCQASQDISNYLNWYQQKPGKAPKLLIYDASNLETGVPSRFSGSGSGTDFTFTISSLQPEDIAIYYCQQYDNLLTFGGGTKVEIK
B3: PR302950 (antibody, V domains shown)
VH: QVQLQESGPGLVKPSGTLSLTCAVSGGSISSSNWWSWVRQPPGKGLEWIGEVYHSGSTNYNPSLKSRVTISVDKSQNQFSLKLTSVTAADTAVYYCARVTGNKDYYYYDLDVWGQGTTVTVSS
VL: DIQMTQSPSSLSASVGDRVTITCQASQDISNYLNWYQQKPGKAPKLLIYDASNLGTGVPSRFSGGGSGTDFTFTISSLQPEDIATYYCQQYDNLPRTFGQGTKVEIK
B4: PR302949 (antibody, V domains shown)
VH: EVQLLESGGGLVQPGGSLRLSCAASGFTFSSYAMSWVRQAPGKGLEWVSSISGSDFSTYYADSVKGRFTISRDTSKNTLYLQMNSLRAEDTAVYYCAKDRQWLVSSFDFWGQGALVTVSS
VL: DIQMTQSPSSLSASVGDRVTITCQASQDISNYLNWYQQKPGKAPKLLIYDASNLETGVPSRFSGSGSGTDFTFTISSLQPEDIATYYCQQYDNLITFGQGTRLEIK
B5: PR302951 (antibody, V domains shown)
VH: B4 VH with G26R, S31T, D55G, S57N, R72S, T74S, F109Y, A114T
VL: B4 VL
B6: PR302282 (antibody, V domains shown)
VH: QVQLVESGGTVVQSGRSLRLSCAASGFTFSSYGMHWVRQAPGKGLEWVAGMWYDGNYKYYADSVKGRFTISRDNSKNTLSLQMNSLRAEDTAVYYCARDSPIGVFDYWGQGTLVTVSS
VL: B4 VL
B7: PR301366 (antibody, V domains shown)
VH: EVQLLESGGGLVQPGGSLRLSCAASGFTFSNYAMNWVRQAPGKGLEWVSVISVSGGSTYYADSVKGRFTISRDNSKNTLYLQMNSLRAEDTAVYYCAKDYYYDSGSYYDSFFDYWGQGTLVTVSS
VL: not shown
B8: PR302259 (antibody, V domains shown)
VH: EVQLLESGGGLVQPGGSLRLSCAVSGFTFSSYAMSWVRQAPGKGLEWVSAISDNAGSTYYADSVKGRFTISRDNSKNTLHLQMNSLRAEDTAVYSCAKERQWLVLGVMDAWGQGASVTVSS
VL: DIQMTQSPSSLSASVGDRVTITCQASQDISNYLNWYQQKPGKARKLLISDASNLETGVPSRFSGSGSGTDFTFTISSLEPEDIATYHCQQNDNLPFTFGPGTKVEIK
B9: PR302934 (antibody, V domains shown)
VH: QVQLQQWGAGLLKPSETLSLTCAVYGGSFSGYYWSWIRQTLGKGLEWIGEVSHSGGTNYNPSLKSRVTISVDTSKNQFSLKLSSVTAADTAVYYCARSPYYGDYMYVFDIWGQGTMVTVSS
VL: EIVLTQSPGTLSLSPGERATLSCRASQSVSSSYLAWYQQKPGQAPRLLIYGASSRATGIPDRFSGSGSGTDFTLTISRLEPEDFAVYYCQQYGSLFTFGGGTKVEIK
B10: PR302264 (antibody, V domains shown)
VH: QVQLQQWGAGLLKPSETLSLTCAVYGGSLSGYYWSWIRQPPGKGLEWIGEINHSGGTNYNPSLKSRVTISVPTSKNQFSLKLTSVTAADTAVYYCARGQQQLDWYFDLWGRGTLVTVSS
VL: EIVMTQSPATLSVSPGERATLSCRASQNIYSHLVWYQQKPGQAPRLLIYGASTRATGIPARFSGSGSGTEFTLTITSLQSEDFTVYYCQQYNDWPPITFGQGTRLEIR
B11: PR302261 (antibody, V domains shown)
VH: EVQLLESGGGLVQSGGSLRLSCAASGFTFSSYAMSWVRQAPGKGLGWVSTISGSGGSAYYADSVKGRFTVSRDNSKKTLYLQMNSLRAEDTAVYFCAILSGDDAFDIWGQGTMVTVSS
VL: DVVMTQSPLSLPVTPGEPASISCRSSQSLLRGNGYNYLDWYLQKPGQSPQLLIYLGSNRASGVPDRFSGSGSGTDFTLKISRVEAEDVGIFYCMQALQSPLTFGGGTKVEIK
B12: PR302239 (antibody, V domains shown)
VH: QVQLQESGPGLVKPSETLSLTCTVSGDSISSYYWSWIRQPPGKGLEWIGFIYYSGSTNYNPSLKSRVTISVDTSKNQFSLKLTSVTAADTAVYYCANQLWFGESPFDYWGQGTLVTVSS
VL: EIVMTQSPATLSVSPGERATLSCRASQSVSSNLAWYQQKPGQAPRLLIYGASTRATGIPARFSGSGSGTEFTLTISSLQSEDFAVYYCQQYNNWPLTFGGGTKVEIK
B13: PR302702 (antibody, V domains shown)
VH: B4 VH with S31T, S35T, S57N, T74I, R100Q, Q101E, S105R, D108H, F109H, A114T
VL: DIQMTQFPSSLFAFVGDRVTITCQASQDISNYLNWYQQKAGKAPKLLINDASNLETGVPSRFSGSGFGTDFTFTISSLQPEDFATYYCQQYENLPTFGGGTKVEIK
B14: PR302259-1 (antibody, V domains shown)
VH: B8 VH
VL: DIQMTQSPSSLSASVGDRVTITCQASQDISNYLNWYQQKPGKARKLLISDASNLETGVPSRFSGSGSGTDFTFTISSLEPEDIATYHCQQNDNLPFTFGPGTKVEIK
B15: PR302239-1 (antibody, V domains shown)
VH: B12 VH
VL: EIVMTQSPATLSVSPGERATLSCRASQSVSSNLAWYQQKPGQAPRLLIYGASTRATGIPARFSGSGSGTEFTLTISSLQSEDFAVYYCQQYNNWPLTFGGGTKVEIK

target: huILT4 protein (human); experiment: competition, ELISA, blocking SEMA4A
Sequence (chain, as listed by the source): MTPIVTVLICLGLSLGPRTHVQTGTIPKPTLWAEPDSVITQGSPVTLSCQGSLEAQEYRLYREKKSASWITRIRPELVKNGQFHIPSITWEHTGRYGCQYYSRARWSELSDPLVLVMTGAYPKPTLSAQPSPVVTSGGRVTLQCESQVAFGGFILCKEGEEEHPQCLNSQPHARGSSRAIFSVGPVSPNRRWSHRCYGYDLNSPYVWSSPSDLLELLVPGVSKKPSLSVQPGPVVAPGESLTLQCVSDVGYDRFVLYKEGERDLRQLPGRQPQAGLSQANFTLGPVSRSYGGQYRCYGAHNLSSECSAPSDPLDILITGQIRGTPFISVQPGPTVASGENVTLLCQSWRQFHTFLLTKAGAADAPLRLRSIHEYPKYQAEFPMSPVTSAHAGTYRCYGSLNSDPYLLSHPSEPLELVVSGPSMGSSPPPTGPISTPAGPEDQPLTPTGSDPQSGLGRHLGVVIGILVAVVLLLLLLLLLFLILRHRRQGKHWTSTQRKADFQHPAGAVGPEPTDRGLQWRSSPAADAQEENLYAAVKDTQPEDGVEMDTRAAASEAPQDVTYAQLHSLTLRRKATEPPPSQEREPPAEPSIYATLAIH

IC50 [nM] | Binder
61.5 | B1
40.9 | B2
65 | B3
47.9 | B4
52.9 | B5
48.1 | B6
34.8 | B7
34.1 | B8

target: monkey ILT4-ECD (cynomolgus); experiment: ELISA
Sequence (chain, as listed by the source): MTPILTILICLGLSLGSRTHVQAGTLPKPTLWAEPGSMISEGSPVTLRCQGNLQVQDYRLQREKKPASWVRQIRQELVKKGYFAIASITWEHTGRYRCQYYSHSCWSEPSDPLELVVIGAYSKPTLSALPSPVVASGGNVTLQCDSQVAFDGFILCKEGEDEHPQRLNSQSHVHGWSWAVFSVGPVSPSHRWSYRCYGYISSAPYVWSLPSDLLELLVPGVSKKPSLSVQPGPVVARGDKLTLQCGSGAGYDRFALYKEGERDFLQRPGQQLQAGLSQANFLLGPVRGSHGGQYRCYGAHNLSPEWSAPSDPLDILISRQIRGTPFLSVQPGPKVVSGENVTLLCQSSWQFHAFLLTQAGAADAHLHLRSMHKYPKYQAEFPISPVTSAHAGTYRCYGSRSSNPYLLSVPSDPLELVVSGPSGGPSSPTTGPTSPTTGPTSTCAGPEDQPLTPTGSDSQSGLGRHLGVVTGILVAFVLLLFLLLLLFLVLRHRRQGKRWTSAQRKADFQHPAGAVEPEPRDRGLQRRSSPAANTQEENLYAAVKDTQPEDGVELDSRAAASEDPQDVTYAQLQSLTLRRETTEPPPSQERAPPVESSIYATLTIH

EC50 [nM] | Binder
0.047 | B9
0.935 | B10
0.401 | B7
0.008 | B11

target: huILT4 protein (human); experiment: competition, FACS, blocking HLA-G

IC50 [nM] | Binder
10.6 | B1
5.33 | B2
9.34 | B3
8.86 | B4
8.6 | B5
3.99 | B7
3.4 | B8
6.49 | B12

target: human ILT4-ECD (human); experiment: ELISA
Sequence (chain, as listed by the source): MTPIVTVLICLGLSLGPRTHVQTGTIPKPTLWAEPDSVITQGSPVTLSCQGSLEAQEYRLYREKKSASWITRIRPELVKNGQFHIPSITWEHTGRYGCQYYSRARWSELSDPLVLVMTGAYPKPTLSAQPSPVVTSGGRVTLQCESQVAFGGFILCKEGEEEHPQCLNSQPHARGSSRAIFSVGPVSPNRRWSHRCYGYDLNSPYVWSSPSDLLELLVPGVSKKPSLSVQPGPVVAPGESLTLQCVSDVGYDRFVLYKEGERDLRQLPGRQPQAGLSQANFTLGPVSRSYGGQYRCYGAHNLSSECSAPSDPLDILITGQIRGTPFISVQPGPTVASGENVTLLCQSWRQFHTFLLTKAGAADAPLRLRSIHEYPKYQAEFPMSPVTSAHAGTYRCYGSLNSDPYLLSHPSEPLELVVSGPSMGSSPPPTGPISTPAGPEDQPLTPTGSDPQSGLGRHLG

EC50 [nM] | Binder
0.012 | B9
0.025 | B1
0.021 | B2
0.026 | B10
0.056 | B3
0.023 | B4
0.029 | B13
0.015 | B5
0.015 | B6
0.014 | B7
0.032 | B11
0.012 | B14
0.036 | B15

target: human ILT4 (cell surface) (human); experiment: FACS

EC50 [nM] | Binder
0.345 | B2
1.88 | B6
0.362 | B7
0.262 | B14
0.931 | B15
